Like-named read-outs stand apart in the source and are kept apart here.
How the values were obtained:
[1] = biological target: T1, recombinant full-length His-tagged human TDP-43 (2-414) (human, UniProt Q13148 2-414); test: direct ELISA, coated antigen
T1 construct: Amino terminal His tag, made in E. coli, purified in 8 M urea; also called full length TDP-43; full-length TDP-43
Experimental: (§1) The half maximal effective concentration (EC₅₀) of the human-derived TDP-43-specific antibodies for human TDP-43 and their target target-specificity was determined substantially as described in Example 2 above. Briefly, 96 well microplates (Corning) were coated with recombinant full length TDP-43 (Biogen Idec, USA), Escherichia coli extract and BSA (Sigma, Buchs, Switzerland), diluted to a concentration of 5 μg/ml in carbonate ELISA coating buffer (pH 9.6) overnight at 4° C. […] Non-specific binding sites were blocked for 1 hr. at room temperature with PBS containing 2% BSA (Sigma, Buchs, Switzerland). Human TDP-43-specific antibodies were diluted to the indicated concentrations and incubated 1 hr. at room temperature. Binding was determined using a donkey anti-human IgGγ-specific secondary antibody conjugated with HRP (Jackson ImmunoResearch, USA), followed by measurement of HRP activity in a standard colorimetric assay. EC₅₀ values were estimated by a non-linear regression using GraphPad Prism software (San Diego, USA).

[2] = biological target: T2, 6xHis-SUMO-TDP-43 (1-414), properly folded full length (human, UniProt Q13148 1-414); test: capture ELISA, antigen held by anti-6xHis antibody
T2 construct: Purified with KSCN and arginine, monomeric; captured on the plate by an anti-6xHis antibody; also called folded full-length TDP-43; 6xHis/SUMO tagged full length TDP-43; not shown: N-terminal 6xHis and SUMO tags from a modified pET19-b vector
T2 sequence (Q13148 whole entry): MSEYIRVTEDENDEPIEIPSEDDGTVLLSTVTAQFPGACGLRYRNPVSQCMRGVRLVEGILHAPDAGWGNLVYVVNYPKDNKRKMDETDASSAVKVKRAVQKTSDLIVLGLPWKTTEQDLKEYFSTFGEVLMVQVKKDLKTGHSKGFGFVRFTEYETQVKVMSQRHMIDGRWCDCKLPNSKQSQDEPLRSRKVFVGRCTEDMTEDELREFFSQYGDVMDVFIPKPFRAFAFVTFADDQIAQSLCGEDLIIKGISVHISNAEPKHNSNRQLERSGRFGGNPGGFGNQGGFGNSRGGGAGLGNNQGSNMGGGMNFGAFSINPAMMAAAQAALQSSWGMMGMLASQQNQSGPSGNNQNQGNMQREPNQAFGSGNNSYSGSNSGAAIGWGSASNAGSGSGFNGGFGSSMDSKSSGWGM
Experimental: (§2) Non-specific binding sites were blocked for 1 hr at RT with PBS containing 1% BSA (Sigma) and 0.05% Tween-20 (Fisher Scientific). 6×His-SUMO-TDP43 proteins at a concentration of 1.7 μM were allowed to bind to antibody-coated plates for 1 hr at RT in PBS buffer containing 1% BSA, 300 mM arginine and 0.1% PEG 5000, pH 7.5. Plates were incubated for 1 hr at RT with human antibodies of present invention, titrated in a three-fold dilution series, followed by HRP conjugated anti-human IgG Fc γ (Jackson ImmunoResearch) in PBST containing 1% BSA. HRP activity was measured in a standard colorimetric assay. EC₅₀ values were calculated using a four-parameter logistic curve fit on Softmax pro software (Molecular Devices).
(§3) We measured the binding affinity of the human-derived TDP-43 specific antibodies provided herein to properly folded 6×His/SUMO tagged TDP-43 using a capture ELISA in which native TDP-43 was immobilized without direct adsorption on the surface of the ELISA plate. This was achieved by immobilizing an anti 6×His antibody which then captured native TDP-43. […] After this immobilization step, binding by human antibodies was tested in regular buffers without interference of TDP-43 aggregation.

[3] = biological target: T3, 6xHis-SUMO-TDP-43 (220-414) (human, UniProt Q13148 220-414); test: capture ELISA, antigen held by anti-6xHis antibody
T3 construct: Captured on the plate by an anti-6xHis antibody; also called 6xHis/SUMO tagged truncated TDP-43; not shown: N-terminal 6xHis and SUMO tags from a modified pET19-b vector
T3 sequence (Q13148 220-414): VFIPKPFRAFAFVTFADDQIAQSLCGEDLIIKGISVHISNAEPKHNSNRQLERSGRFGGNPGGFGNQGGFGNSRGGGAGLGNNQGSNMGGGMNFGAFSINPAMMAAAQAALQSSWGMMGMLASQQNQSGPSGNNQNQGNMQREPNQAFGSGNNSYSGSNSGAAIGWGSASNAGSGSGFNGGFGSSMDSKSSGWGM
Experimental: as §2, §3

[4] = biological target: T1, recombinant full-length His-tagged …; test: direct ELISA, coated antigen; remark: listed apart in the source
Experimental: as §1

[5] = biological target: T4, His-huTDP-43 domain II (amino acid residues 99-204) (human); test: Western blot
T4 construct: Amino terminal His-tagged fragment, E. coli
T4 chain: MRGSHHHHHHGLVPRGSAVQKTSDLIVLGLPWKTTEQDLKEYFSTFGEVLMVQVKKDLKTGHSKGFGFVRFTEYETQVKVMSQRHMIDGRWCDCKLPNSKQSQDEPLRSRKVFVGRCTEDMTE
Experimental: (§4) Non-specific binding sites were blocked for 1 hr. at room temperature with PBST containing 2% BSA (Sigma, Buchs, Switzerland). Blots were incubated overnight with primary antibodies (10 nM) followed by either a donkey anti-human IgGγ-specific secondary antibody conjugated with HRP (Jackson ImmunoResearch, USA) or a goat-anti mouse IgG (H+L)-specific secondary antibody conjugated with HRP (Jackson ImmunoResearch, USA). Blots were developed using ECL and ImageQuant 350 detection (GE Healthcare, Otelfingen, Switzerland).
(§5) Commercially available TDP-43 specific antibody TARDBP (M01), clone 2E2-D3 (Abnova, Taiwan) was used as positive control for human TDP-43 detection whereas, an anti-human IgG Fcγ-specific antibody was used as a negative control. Binding of the human-derived antibodies to specific TDP-43 domains was determined by Western Blot analysis.

[6] = biological target: T5, His-huTDP-43 domain III (amino acid residues 183-273) (human); test: direct ELISA, His-tagged TDP-43 fragments coated at 6.6 ug/ml, OD 450
T5 construct: Amino terminal His-tagged fragment, E. coli
T5 chain: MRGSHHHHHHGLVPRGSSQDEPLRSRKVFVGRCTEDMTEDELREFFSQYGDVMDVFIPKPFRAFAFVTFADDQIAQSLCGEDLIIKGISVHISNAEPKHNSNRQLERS
Experimental: (§6) Non-specific binding sites were blocked for 1 hr. at room temperature with PBST containing 2% BSA (Sigma, Buchs, Switzerland). Antibodies were incubated 1 hr. at room temperature. Binding was determined using either a donkey anti-human IgGγ-specific antibody conjugated with HRP (Jackson ImmunoResearch, USA) or a goat-anti mouse IgG (H+L)-specific secondary antibody conjugated with HRP (Jackson ImmunoResearch, USA)., followed by measurement of HRP activity in a standard colorimetric assay.

[7] = biological target: T6, His-huTDP-43 domain I (amino acid residues 2-106) (human); test: as above
T6 construct: Amino terminal His-tagged fragment, E. coli; also called N-terminal domain
T6 chain: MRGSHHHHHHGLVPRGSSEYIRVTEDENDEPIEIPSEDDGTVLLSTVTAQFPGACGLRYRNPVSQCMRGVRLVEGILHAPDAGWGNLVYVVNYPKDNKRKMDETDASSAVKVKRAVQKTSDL
Experimental: as §6

[8] = biological target: T7, His-huTDP-43 domain IV (amino acid residues 258-414) (human, UniProt Q13148 258-414); test: as above
T7 construct: Amino terminal His-tagged fragment, E. coli, solubilized in 8 M urea; also called Glycine-rich domain
T7 sequence (Q13148 other isoform, or with tags, fused parts or gaps limits assumed): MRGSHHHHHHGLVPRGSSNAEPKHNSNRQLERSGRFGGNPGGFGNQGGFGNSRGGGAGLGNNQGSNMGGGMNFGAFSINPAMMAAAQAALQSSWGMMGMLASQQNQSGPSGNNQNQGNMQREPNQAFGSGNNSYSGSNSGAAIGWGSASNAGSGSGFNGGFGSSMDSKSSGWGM
Experimental: as §6

[9] = biological target: T5, His-huTDP-43 domain III (amino acid …); test: direct ELISA, TDP-43 fragments coated at 6.6 ug/ml, OD 450
Experimental: as §6

[10] = biological target: T4, His-huTDP-43 domain II (amino acid …); test: as above
Experimental: as §6

[11] = biological target: T6, His-huTDP-43 domain I (amino acid …); test: as above
Experimental: as §6

[12] = biological target: T5, His-huTDP-43 domain III (amino acid …); test: Western blot
Experimental: as §4, §5

[13] = biological target: T4, His-huTDP-43 domain II (amino acid …); test: direct ELISA, His-tagged TDP-43 fragments coated at 6.6 ug/ml, OD 450
Experimental: as §6

[14] = biological target: T5, His-huTDP-43 domain III (amino acid …); test: Western blot, 300 ng recombinant protein per lane, primary antibody 10 nM
Experimental: as §4

[15] = biological target: T4, His-huTDP-43 domain II (amino acid …); test: as above
Experimental: as §4

[16] = biological target: T6, His-huTDP-43 domain I (amino acid …); test: as above
Experimental: as §4

BSA = biological target: T8, BSA (bovine, UniProt P02769); test: direct ELISA, BSA coated at 5 ug/ml as control, OD 450
T8 construct: control coating in the EC50 ELISA; also called bovine serum albumin (Sigma, Buchs, Switzerland)
T8 sequence (P02769 25-607 limits assumed): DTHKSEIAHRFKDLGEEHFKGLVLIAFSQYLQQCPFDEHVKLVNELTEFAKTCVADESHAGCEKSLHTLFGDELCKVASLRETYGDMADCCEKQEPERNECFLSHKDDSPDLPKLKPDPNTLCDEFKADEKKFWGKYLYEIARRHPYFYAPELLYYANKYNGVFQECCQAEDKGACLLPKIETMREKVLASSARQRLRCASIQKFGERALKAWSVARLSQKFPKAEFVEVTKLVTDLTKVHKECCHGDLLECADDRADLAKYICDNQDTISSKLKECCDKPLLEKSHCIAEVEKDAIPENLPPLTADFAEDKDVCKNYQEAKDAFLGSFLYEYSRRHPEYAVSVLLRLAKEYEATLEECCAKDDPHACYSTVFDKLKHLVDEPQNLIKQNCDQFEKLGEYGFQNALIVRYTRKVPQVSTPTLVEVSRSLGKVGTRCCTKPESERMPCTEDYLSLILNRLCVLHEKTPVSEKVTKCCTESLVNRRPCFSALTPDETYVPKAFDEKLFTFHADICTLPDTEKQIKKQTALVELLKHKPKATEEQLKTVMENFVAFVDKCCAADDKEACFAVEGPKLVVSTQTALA
Experimental: as §1, with “To determine the” for “The”, “to evaluate target-specificity,” for “their target target-specificity was determined substantially as described in Example 2 above. Briefly,”
The half maximal effective concentration (EC₅₀) of the human-derived TDP-43-specific antibodies for human TDP-43 and their target target-specificity was determined substantially as described in Example 2 above. […]

B1: NI-205.21G2 (antibody, human IgG1, V domains shown)
VH: QVQLVQSGAEVKKPGASVKVSCKTSGYSFTSYTLHWVRQAPGHRPEWMGWINAAFINTKYSQKFQGRITLTRDTSANIAYLELRSLTTEDTAVYYCARRASGSNGLDVWGQGTTVTVSS
VL: DIQMTQSPSSLSASVGDRITITCQASRDITNYLNWYQQKPGKAPKLLIYDASYLETGVPSTFSGSGSGTHFTLTISSLQPDDFATYYCQQYDSVPLTFGGGTKVEIK
notes: Human-derived
[1]
  EC50: 0.24 nM
[2]
  EC50: 3.6 nM
[3]
  binding result: no binding
[4]
  EC50: 0.24 nM
[5]
  binding result: binds
[6]
  binding result: no binding
[7]
  binding result: no binding
[8]
  binding result: no binding

B2: NI-205.44B2 (antibody, human IgG1, V domains shown)
VH: QVQLQESGPGVVKPSQTLSLTCTVSGVSVGSGDYYWSWIRHHPGKGLEWIGYISFFGSSNYNPSLKGRVSMSVDTSNNQFSLNLKSVTAADTAVYFCATGNAYSFWGQGTMVTVSS
VL: QSALTQPASVSGSPGQSITISCTGTSSDIGTHNLVSWYQQHPGKAPKLIIYEIFERPSGISSRFTGSKSGNTASLTISGLQAEDEADYFCCAYSVTVIFGGGTKLTVL
notes: Human-derived; also called NI205.44B22
[1]
  EC50: 2.8 nM
[2]
  EC50: > 125 nM
[3]
  EC50: 33.5 nM
[9]
  binding result: no binding
[10]
  binding result: no binding
[11]
  binding result: no binding

B3: NI-205.51C1 (antibody, human IgG1, V domains shown)
VH: EVQLVESGGGLVQPGGSLRISCTTSGFIFSDYWMHWVRQAPGKGLTWVSRINLDGSDTIYADSVKGRFTISRDNDKNTLYLQMNSLRVEDTAIYYCARSRKSVWGQGTMVTVSS
VL: QSALTQPASVSGSPGQSITISCTGSNTDVGAYDYVSWSQQLPGKAPKFVIFDVDVRPSGISDRFSGSKSGNTASLTISGLQAEDEADYYCSSYTKSGTLVFGGGTKVTVV
notes: Human-derived
[1]
  EC50: 0.18 nM
[2]
  EC50: 1.1 nM
[3]
  binding result: no binding
[4]
  EC50: 0.18 nM
[12]
  binding result: binds
[13]
  binding result: no binding
[7]
  binding result: no binding
[8]
  binding result: no binding

B4: NI-205.21G1 (antibody, human IgG1, V domains shown)
VH: QVQLVESGGGVVQPGMSLRLSCAASGFSFSSHGMHWVRQTPGKGLEWLAVISYDASNKSYADSVKGRFTISRDNSKKTLYLQMDSLRVEDTALYYCANAFSSSASGGYWGQGTLVTVSS
VL: DVVMTQSPLSLPVTLGQPASISCRSSQSLVHSDGVTYLNWFQQRPGQSPRRLIYKVSNRDSGVPDRFSGSGSGTDFTLEISRVEAEDVGIYYCMQGTHWPPWTFGQGTKVEIK
notes: Human-derived; also called NI-21G1
[1]
  EC50: 4.1 nM
[2]
  EC50: 4.4 nM
[3]
  EC50: 0.33 nM
[14]
  binding result: no binding (tested: 10 nM)
[15]
  binding result: no binding (tested: 10 nM)
[16]
  binding result: no binding (tested: 10 nM)
[4]
  EC50: 4.1 nM
BSA
  binding result: no binding (tested: about 4x10^5 pM)

B5: NI-205.3F10 (antibody, human IgG1, V domains shown)
VH: EVQLLESGGDLVQPGGSLRLSCAASGFTFSSQAMSWVRQAPGKGLEWVSALSRTGDYTWYADSVRGRFTVSRDDSKNIFYLEMNSLRAEDTAVYYCAKNYYSSFGYNWAAFHIWGQGTMVTVSS
VL: EIVLTQSPGTLSLSPGERATLSCRASQDVNNNYLAWYQQKPGQAPRLLIYGASRRATGVPDRFSGRGSGTDFTLTINRLEPEDFAMYFCQQYGGSPPYTFGQGTKLEIK
notes: Human-derived
[1]
  EC50: 1.4 nM
[2]
  EC50: > 90 nM
[3]
  binding result: no binding
[4]
  EC50: 1.4 to 2.8 nM
[12]
  binding result: binds
[13]
  binding result: no binding
[7]
  binding result: no binding
[8]
  binding result: no binding
